Data reported in the nanobody polyreactivity screen of Harvey et al. (2022).

Test: yeast display, Sf9 membrane polyspecificity reagent, FACS + sequencing; frameworks hold sequencing errors
How it was run: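 Polyreactivity labels are assigned by the sorting gate from which each nanobody was recovered. The gates were low and high (top ~1%), set on anti-HA fluorescence for expression and streptavidin fluorescence for reagent binding. Before sorting, galactose-induced (36–48 hours) yeast display cells were stained for 1 hour at 4 °C with 10% biotinylated, detergent-solubilized Sf9 membrane reagent.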

Sequence	polyreactivity (PSR sort gate)
QVQLVESGGGLVQAGGSLRLSCAASGSTFVYNDMGWYRQAPGKERELVAVITSGGNTYYADSVKGRFTISRDNAKNTVYLQMNSLKPEDTAVYYCATRWYRFYPSDYWGQGTQVTVSS	low polyreactivity
QVQLVESGGGLVQAGGSLRLSCAASGSTFVYYAMGWYRPAPGKERELVAAISKRGGSTYYADSVKGRFTISRDNAKNTVYLQMNSLKPEDTAVYHCAADQARGRYTLDYWGQGTQVTVSS	high polyreactivity
QVQLVESGGGLVQAGGSLRLSCAASGSTFVYYAMGWYRQAPGKEREFVAAISTNGGSTYYADSVKGRYTISRDNAKNTVYLQMNSLKPEDTAVYYCAARWYWGQGTQGTVSS	high polyreactivity
QVQLVESGGGLVQAGGSLRLSCAASGSTFVYYAMGWYRQAPGKEREFVATIYRGDNTNYADSVKGRFTISRDNAKNTVYLQMNSLKPEDTAVYYCAADEPKWDLGGGTYLRDYWGLGTQVTVSS	low polyreactivity
QVQLVESGGGLVQAGGSLRLSCAASGSTFVYYAMGWYRQAPGKERELVAAIRNGDGTNYADSVKGRFTISRDNAKNTVYLQMNSLKPEDTAVYYCAAPQGEYFYVYEFDYWGQGTQVTVSS	low polyreactivity
QVQLVESGGGLVQAGGSLRLSCAASGSTFVYYAMGWYRQAPGKERELVAAISTSAGSTYYADSVKGRFTISRDNAKNTVYLQMNSLKPEDTAVYYCAAGRYYRGYYWGQGTQVTVSS	high polyreactivity
QVQLVESGGGLVQAGGSLRLSCAASGSTFVYYAMGWYRQAPGKERELVAAISWSGTRTYYADSVKGRFTISRDNAKNTVYLQMNSLKPEDTAVYYCATRKQSRSVGYNYWGQGTQVTVSS	high polyreactivity
QVQLVESGGGLVQAGGSLRLSCAASGSTFVYYAMGWYRQAPGKERELVAAITASGGGTYYADSVKGRFTISRDNAKNTVYLQMNSLKPEDTAVYYCNRGYDYWGQGTQVTVSS	low polyreactivity
QVQLVESGGGLVQAGGSLRLSCAASGSTFVYYAMGWYRQAPGKERELVAAITSRGGSTYYADSVKGRFTISRDNAKNTVYLQMNSLKPEDTAVYYCAKYAYSFPYNYWGQGTQVTVSS	high polyreactivity
QVQLVESGGGLVQAGGSLRLSCAASGSTFVYYAMGWYRQAPGKERELVAAMTSSGGRTYYADSVKGRFTISRDNAKNTVYLQMNSLKPEDTAVYYCATPSTRLYSVTSQGYGYWGQGTQVTVSS	high polyreactivity
QVQLVESGGGLVQAGGSLRLSCAASGSTFVYYAMGWYRQAPGKERELVADISWSGGDTYYADSVKGRFTISRDNAKNTVYLQMNSLKPEDTAVYYCAAEWSTPSYVGFADGFEYWGQGTQVTVSS	low polyreactivity
QVQLVESGGGLVQAGGSLRLSCAASGSTFVYYAMGWYRQAPGKERELVASITGGGRTNYADSVKGRFTISRENAKNNVYLQMNSLKPEDTAVYYCAKDHASYYYWPSVLPYDHWGQGSQVTVSS	low polyreactivity
QVQLVESGGGLVQAGGSLRLSCAASGSTFVYYAMGWYSQAPGKERELVAAITRSGGRTYYADSVKGRFTNSRDNAKNRVYLQMNSLKPEDTAVYYCAADDYTGYGYWGQGTQVTVSS	high polyreactivity
QVQLVESGGGLVQAGGSLRLSCAASGSTFVYYDMGWYRQAPGKERELVAAITNGGNTYYADSVKGRFTISRDNAKNTVYLQMNSLKPEDTAVYYCAKLYTDAIVWSAYDYWGQGTQVTVSS	low polyreactivity
QVQLVESGGGLVQAGGSLRLSCAASGSTFWAYVMGWYRQAPGKERELVAAISSGGTTNYADSVKGRFTISRDNAKNTVYLQMNSLKPEDTAVYYCAAEYPSVYYERFDYWGQGTQVTVSS	low polyreactivity
QVQLVESGGGLVQAGGSLRLSCAASGSTFWEKAIGWSRQAPGKEMELAAAISWGGASTYYADSVKGRFTISRDNAKNTVYLQMNSLKPEDTAVYYCAADQTSTQFLSSYGGYNYWGQGTQVTVSS	low polyreactivity
QVQLVESGGGLVQAGGSLRLSCAASGSTFWFNAMGWYRQAPGKERELVAAIDSGGGTYYADSVKGRFTISRDNAKNTAYLQMNSLKPEDTAVFYCNASHPPKAELDYWGQGTQVTVSS	low polyreactivity
QVQLVESGGGLVQAGGSLRLSCAASGSTFWFYAMGWYRQAPGKERELVAVISNSGSTYYADSVKGRFTISRDNAKNTVYLQMNSLKPEDTAVYYCNRYYPVPYDYWGQGTQVTVSS	low polyreactivity
QVQLVESGGGLVQAGGSLRLSCAASGSTFWHYAMGWYRQAPGKERELVAAISSGGGRTYYADSVKGRFTISRDNAKNTVYLQMNSLQPEDTAVYYCAARYYFYDYWGQGTQVTLSS	high polyreactivity
QVQLVESGGGLVQAGGSLRLSCAASGSTFWKYVKGWYRQAPGKERELVAAISNSGVNTYYADSVKGRFTISRDNAKNTVYLQMNSLKTEDTAVYYCAADRCGYEYWGQGTQVTVSS	high polyreactivity
QVQLVESGGGLVQAGGSLRLSCAASGSTFWLYTMGCYRQAPVKERELVAAISTRGGSTYYADSVKGRFTISRDNAKNTVYVQMHSLKPEDTAVYYCAAYPTYGEYDYWGQGSQVTVSS	high polyreactivity
QVQLVESGGGLVQAGGSLRLSCAASGSTFWLYVMGWYRQAPGKERELVAAISSGGITKYADSVKGRFTISRDNAKNTVYLQMNSLKPEDTAVYYCAVGVLGYRRVTGYYWGQGTQVTVTS	high polyreactivity

Sequence	polyreactivity (PSR sort gate)
QVQLVESGGGLVQAGGSLRLSCAASGSTFWNAMGWYRQAPGKERELVAAIRLSGGSTYYADSVKGRFTISRDNAKNTVYLQMNRLKPEDTAVYYCATDLVFVSSDLQETAYYWGQGTQVTVSS	low polyreactivity
QVQLVESGGGLVQAGGSLRLSCAASGSTFWNYAMGWYRQAPGKERELVAAITRGSSTNYADSVKGRFTISRDNAKNTVYLQMNSLKPEDTAVYYCANPVGRWSAFYYWGQGTQVTVSS	high polyreactivity
QVQLVESGGGLVQAGGSLRLSCAASGSTFWNYAMGWYRQAPGKERELVASIDSSDGRTYYADSVKGRFTSSRDNAKNTVFLQMTRQKPEDTAVDYCAKDAYAVELRPYSKLSSRADGYWGHGTQVTVSS	low polyreactivity
QVQLVESGGGLVQAGGSLRLSCAASGSTFWPYAMGRYRPAPGKERELGATIRGGGTSTYYADSVKGRVTISRDNAKNTVYLQMNSLKPEDTAGYYCAARGFYTGSYPGYYYWGQGTQVTVSS	high polyreactivity
QVQLVESGGGLVQAGGSLRLSCAASGSTFWPYAMGWYIQAPGKERELVAAITSSGGSTYYADSVKGRFTISRDNAKNTVYLQMNSLKAEDTAVYYCAADWSNLGAYDYWGQGTQVTVSS	low polyreactivity
QVQLVESGGGLVQAGGSLRLSCAASGSTFWPYAMGWYRQAPGKERELVAAITTRDGSTYYADSVKGRFTISRDNAKNTVYLQMNSLKPEDTAVYYCAAKSSRYDYYYWGQGTQVTVSS	high polyreactivity
QVQLVESGGGLVQAGGSLRLSCAASGSTFWPYAMGWYRQAPVKERELVADISRRCGSTYYADSVKGRFTISRDNAKNTVYLQMNSLKPEDTAVYYCAKYPSAYVDSDVTYDMAYWGQGTQVTVSS	low polyreactivity
QVQLVESGGGLVQAGGSLRLSCAASGSTFWPYTMGWYRQAPGKERELVAAITLRGGTTYYADSVKGRFTISRDNEKNTVYLQMNSLKPEDTAVYYCAADVAYVEYDYWGQGTQVTVSS	low polyreactivity
QVQLVESGGGLVQAGGSLRLSCAASGSTFWQYALGWYRQAPGKEREFVAAISSRGGSTYYADSVKGRFTISRDNAKNTVYLQMNSLKPEDTAVYYCAAQNYFAFIRTYRYVHRPTYYYWGQGTQVTVSS	high polyreactivity
QVQLVESGGGLVQAGGSLRLSCAASGSTFWRNAMGWYRQAPGKERELVAAISRGGSTNYADSVKGRFTISRDNAKNTVYLQMNSLKPEDTAVYYCAARYYYRYNYWGQGTQVTVSS	high polyreactivity
QVQLVESGGGLVQAGGSLRLSCAASGSTFWRYAMGWYRQAPGKERELVAAISRSGGSTYYADSVKGRFTISRDNAKNTVYLQMNSLKPEDTAVYYCAAQYGGKYKLYSDSYAMDYWGQGTQVTVSS	high polyreactivity
QVQLVESGGGLVQAGGSLRLSCAASGSTFWSNAMGWYRQAPGKERELVAAISISDGNTYYADSVKGRFTISRDNAKNTVYLQMNSLKPEDTAVYYCATVGSEDGDPGFDYWGQGTQVTVSS	low polyreactivity
QVQLVESGGGLVQAGGSLRLSCAASGSTFWSNAMGWYRQAPGKERELVAAITRGGSTNYADSVKGRFTISRDNAKNTVYLQMNSLKPEDTAVYFCAATYVPYGRRLYAYYYWGQGTQVTVSS	high polyreactivity
QVQLVESGGGLVQAGGSLRLSCAASGSTFWSNTMGWYRQAPGKERELVATITDSGGITYYADSVKGRFTISRDNAKNTVYLQMNSLKPEDTAVYYCNVRKTWYGYSVTGRYDYWGQGTQVTVSS	low polyreactivity
QVQLVESGGGLVQAGGSLRLSCAASGSTFWSNVMGWYRQAPGKERELVSAISYGGVTTSYADSVKGRFTISRDNAKNTVYLQMNSLKPEDTAVYYCAAYNGAHSHFGYWGQGTQVTVSS	low polyreactivity
QVQLVESGGGLVQAGGSLRLSCAASGSTFWSYTMGGYRQAPGKERELVAAISRSGGSTYYADSVKGRFTISRDNAKNTVYLQKNSLKPEDTAVYYCAASDRYGSRYYYWGQGTQVTVSS	high polyreactivity
QVQLVESGGGLVQAGGSLRLSCAASGSTFWVNAMGWYRQAPGKERELVAAITYSGGSTHYADSVKGRFTISRDNAKNTVYLQMNSLKPEDTAVYYCNAEHWADYDYWGQGTQVTVSS	low polyreactivity
QVQLVESGGGLVQAGGSLRLSCAASGSTFWVYDMGWYRQAPGKERELVAAISRRGGRTYYADSVKGRFTISRDNAKNTVYLQMNSLKPEDTAVYYCNRRYTQPDTRQWYDYWGQGTQVTVSS	low polyreactivity
QVQLVESGGGLVQAGGSLRLSCAASGSTFWVYTKGWYRQAPGKERELVAAITGSTGNTYYADSVKGRFTISRDNPKNTVYFQMNSLKPEDTAVYYCSADSYWSYRYPMGYDNWGQGSQVTVSS	low polyreactivity
QVQLVESGGGLVQAGGSLRLSCAASGSTFWWYAMGWYRQAPGKEREFVAAITSTGGSTYYADSVKGRFTISHDNAKNTVYLQMNSLKPEDTAVYYCAVRLYLEMDYWGQGTQVTVSS	high polyreactivity
QVQLVESGGGLVQAGGSLRLSCAASGSTFWYAMGWYRQAPGKERELVAAITARGGRTYYADSVKGRFTISRDNAKNTVYLQMNSLKPEDTAVYYCARLSYAGGQWIIGKYDYWGQGTQVTVSS	high polyreactivity
